The record followed here is article PMC9410885, “Structural assembly of the nucleic-acid-binding Thp3–Csn12–Sem1 complex functioning in mRNA splicing” (Nucleic Acids Research, 2022).

B1: Csn12, full length, untagged (natural protein, S. cerevisiae, UniProt P47130 1-423, looked up)
chain: MDVDIGCYFEEKRYDDKLLDFIRYDVKTPKKTKYILQRPTATDEESVRLQRFYQLGVDLKLKYSKRRSLKKQGRIKNATEELLRLANEQLKLFNRIVERETNWIIYPLWVMAKQLIRLANESSELNKDSIEECGRTIHRSFTICLNDRNPRLNENKKIGCYMFANLEFSIYHRLSNKDMIKNLVKVLESRVNARDIPPLNKSLAMEHKSQVVLYNYYLGQYYGCLENDHERGFFHLNEALLQCPMLYVESTGKFVLQGQMEKIMILLVPLALLTKRLYPHWDHPVIAGVITRSKRLSQVYPTLVRSVISGNLSLYEATAASHERFFLSQGLHVVITLLREVVFTRLVQRCWQWGNDRKSIMPLKILLATKQHDSSANEDEEEQLDALECRLASAIASGLLRAYLSHSNRCIVFSKKEPFPHSK
notes: Csn12, S. cerevisiae, full length, residues 1-423; untagged Csn12 from pET-22b (with His8-GST-Thp3) or from the first MCS of pETDuet-1 (with Sem1 and His8-GST-Thp3); 7EWF is the selenomethionine form; source: E. coli Rosetta (DE3), co-expressed; in cleared lysate (pull-down) and purified in the ternary complex (Ni-NTA, gel filtration, cation exchange)

Series [1] deals with T1, Thp3 (186–470), truncated Thp3 (S. cerevisiae, UniProt Q12049 186-470).
T1 construct: Thp3 (Ypr045c), S. cerevisiae, residues 186-470 (HD and WH domains); 8×His-GST tag removed with TEV protease; also called truncated Thp3 (residues 186–470); not shown: His8, N-terminal, cleaved; GST, N-terminal, cleaved
T1 sequence (looked up): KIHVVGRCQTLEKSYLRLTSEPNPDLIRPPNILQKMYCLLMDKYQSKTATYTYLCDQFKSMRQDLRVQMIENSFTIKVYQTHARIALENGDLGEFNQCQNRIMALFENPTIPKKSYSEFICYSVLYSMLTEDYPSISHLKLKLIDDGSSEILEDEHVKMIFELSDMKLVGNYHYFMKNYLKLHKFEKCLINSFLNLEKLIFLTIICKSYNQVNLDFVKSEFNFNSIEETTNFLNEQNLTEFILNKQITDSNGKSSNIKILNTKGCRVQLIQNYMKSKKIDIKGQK
In words: crystal structure + SEC; single copy of the ternary complex in the asymmetric unit; ratio said to be consistent with the gel filtration result. The settings on record: both partners purified.

For a further series, the target named is T2, Thp3;Csn12;Sem1 (Saccharomyces cerevisiae;Saccharomyces …, UniProt Q12049;P47130;O94742 1-470;1-423;1-89, ||).
T2 sequence 1: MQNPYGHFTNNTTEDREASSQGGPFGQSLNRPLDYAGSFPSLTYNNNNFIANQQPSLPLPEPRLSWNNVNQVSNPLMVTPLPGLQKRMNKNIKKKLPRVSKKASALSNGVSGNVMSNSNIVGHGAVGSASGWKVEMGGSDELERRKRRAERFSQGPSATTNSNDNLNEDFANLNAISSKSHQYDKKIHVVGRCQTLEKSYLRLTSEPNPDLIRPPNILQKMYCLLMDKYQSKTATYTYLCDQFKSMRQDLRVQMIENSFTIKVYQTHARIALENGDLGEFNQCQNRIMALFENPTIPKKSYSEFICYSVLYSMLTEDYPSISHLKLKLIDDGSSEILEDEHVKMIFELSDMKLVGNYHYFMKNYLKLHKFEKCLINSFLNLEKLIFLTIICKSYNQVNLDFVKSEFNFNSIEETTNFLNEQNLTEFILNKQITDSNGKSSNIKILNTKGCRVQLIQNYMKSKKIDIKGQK
T2 sequence 2: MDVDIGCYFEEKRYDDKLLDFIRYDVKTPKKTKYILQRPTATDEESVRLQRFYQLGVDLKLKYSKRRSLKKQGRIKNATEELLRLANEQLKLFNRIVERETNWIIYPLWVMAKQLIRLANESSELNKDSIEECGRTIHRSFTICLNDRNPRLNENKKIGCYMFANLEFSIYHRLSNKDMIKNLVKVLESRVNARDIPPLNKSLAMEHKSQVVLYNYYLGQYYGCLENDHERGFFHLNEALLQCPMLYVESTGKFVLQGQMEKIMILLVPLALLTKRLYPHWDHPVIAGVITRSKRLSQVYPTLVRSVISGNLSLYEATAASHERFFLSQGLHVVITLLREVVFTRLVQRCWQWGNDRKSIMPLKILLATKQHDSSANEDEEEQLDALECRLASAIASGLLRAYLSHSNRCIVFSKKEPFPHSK
T2 sequence 3: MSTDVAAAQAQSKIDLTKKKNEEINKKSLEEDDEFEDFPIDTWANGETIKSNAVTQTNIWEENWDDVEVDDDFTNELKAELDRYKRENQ
Kind of series: fluorescence polarization; FP: 20 mM Tris-HCl pH 8.0, 150 mM NaCl, 2 mM MgCl2, 25 C; 50 nM 5'-FAM probe, protein 0-25.6 uM, 30 min. The conditions noted are these: protein: recombinant;recombinant;recombinant, tags: 8xHis-GST N-terminal, removed by TEV;none;none, copies: 1;1;1, label: 5' FAM.

In series [2] the target is B1. In words: crystal structure + SEC; single copy of the ternary complex in the asymmetric unit; ratio said to be consistent with the gel filtration result. The settings on record: both partners purified.
The next series has as its target T3, Thp3;Csn12 R401E;Sem1 (Saccharomyces cerevisiae;Saccharomyces …, UniProt Q12049;P47130;O94742 1-470;1-423;1-89, |R401E|).
T3 sequence 1: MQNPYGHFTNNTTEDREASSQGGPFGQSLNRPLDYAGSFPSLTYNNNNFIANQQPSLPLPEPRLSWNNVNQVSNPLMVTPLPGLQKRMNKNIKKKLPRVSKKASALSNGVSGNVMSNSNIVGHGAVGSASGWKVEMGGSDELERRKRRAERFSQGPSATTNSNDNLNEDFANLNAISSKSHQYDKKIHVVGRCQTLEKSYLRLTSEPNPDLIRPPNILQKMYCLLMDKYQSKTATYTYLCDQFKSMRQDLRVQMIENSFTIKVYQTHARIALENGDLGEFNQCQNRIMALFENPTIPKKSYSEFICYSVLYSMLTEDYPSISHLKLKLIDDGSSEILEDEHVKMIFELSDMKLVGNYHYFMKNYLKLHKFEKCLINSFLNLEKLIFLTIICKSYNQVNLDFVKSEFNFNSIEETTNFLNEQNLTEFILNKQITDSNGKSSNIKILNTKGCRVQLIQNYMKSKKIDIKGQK
T3 sequence 2: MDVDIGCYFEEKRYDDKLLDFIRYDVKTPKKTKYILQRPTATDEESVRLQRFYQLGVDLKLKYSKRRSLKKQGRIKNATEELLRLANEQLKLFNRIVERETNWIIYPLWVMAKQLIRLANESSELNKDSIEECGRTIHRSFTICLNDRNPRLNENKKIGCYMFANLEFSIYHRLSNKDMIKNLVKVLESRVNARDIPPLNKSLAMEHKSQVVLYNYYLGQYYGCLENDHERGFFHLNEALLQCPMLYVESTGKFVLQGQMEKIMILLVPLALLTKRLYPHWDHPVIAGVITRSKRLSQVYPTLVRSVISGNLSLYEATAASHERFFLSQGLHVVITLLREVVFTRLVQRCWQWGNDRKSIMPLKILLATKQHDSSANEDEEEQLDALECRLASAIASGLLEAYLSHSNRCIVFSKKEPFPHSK
T3 sequence 3: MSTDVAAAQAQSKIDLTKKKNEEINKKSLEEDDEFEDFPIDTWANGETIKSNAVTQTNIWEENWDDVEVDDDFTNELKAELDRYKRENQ
Kind of series: fluorescence polarization; FP: 20 mM Tris-HCl pH 8.0, 150 mM NaCl, 2 mM MgCl2, 25 C; 50 nM 5'-FAM probe, protein 0-25.6 uM, 30 min. The settings on record: protein: recombinant;recombinant;recombinant; tags: 8xHis-GST N-terminal, removed by TEV;none;none; copies: 1;1;1; label: 5' FAM.

Series [3] concerns the target T4, Thp3;Csn12 K415E/K416E;Sem1 (Saccharomyces cerevisiae;Saccharomyces …, UniProt Q12049;P47130;O94742 1-470;1-423;1-89, |K415E;K416E|).
T4 sequence 1: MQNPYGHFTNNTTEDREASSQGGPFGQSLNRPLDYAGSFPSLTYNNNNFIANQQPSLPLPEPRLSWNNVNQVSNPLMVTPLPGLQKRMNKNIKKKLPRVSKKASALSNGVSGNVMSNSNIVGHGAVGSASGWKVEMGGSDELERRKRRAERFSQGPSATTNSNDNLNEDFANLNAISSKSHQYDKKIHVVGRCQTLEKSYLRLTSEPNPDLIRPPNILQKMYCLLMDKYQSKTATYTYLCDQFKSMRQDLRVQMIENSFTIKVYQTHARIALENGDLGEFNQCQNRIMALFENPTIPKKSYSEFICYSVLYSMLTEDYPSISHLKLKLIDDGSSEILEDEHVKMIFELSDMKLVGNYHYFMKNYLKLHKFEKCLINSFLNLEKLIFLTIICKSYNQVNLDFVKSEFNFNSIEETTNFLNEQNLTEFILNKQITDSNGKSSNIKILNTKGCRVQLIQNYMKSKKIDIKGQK
T4 sequence 2: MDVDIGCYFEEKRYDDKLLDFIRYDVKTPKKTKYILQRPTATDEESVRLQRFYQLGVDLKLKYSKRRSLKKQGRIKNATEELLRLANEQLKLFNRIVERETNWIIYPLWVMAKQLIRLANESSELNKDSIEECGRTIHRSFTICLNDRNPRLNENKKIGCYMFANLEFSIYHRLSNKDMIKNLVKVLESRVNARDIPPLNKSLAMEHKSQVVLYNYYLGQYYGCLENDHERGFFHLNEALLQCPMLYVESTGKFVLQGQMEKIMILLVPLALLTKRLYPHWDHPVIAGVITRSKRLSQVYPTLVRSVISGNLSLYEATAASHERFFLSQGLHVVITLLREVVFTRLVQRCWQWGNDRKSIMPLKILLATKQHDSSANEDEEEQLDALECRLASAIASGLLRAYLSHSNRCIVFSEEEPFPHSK
T4 sequence 3: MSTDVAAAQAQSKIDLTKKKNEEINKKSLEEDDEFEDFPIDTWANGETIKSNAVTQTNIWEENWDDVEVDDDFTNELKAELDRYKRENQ
The description is as above. The settings on record: protein: recombinant;recombinant;recombinant; tags: 8xHis-GST N-terminal, removed by TEV;none;none; copies: 1;1;1; label: 5' FAM.

Series [4] addresses T5, Csn12 (binary complex);Sem1 (Saccharomyces cerevisiae;Saccharomyces …, UniProt P47130;O94742 1-423;1-89, |).
T5 sequence 1: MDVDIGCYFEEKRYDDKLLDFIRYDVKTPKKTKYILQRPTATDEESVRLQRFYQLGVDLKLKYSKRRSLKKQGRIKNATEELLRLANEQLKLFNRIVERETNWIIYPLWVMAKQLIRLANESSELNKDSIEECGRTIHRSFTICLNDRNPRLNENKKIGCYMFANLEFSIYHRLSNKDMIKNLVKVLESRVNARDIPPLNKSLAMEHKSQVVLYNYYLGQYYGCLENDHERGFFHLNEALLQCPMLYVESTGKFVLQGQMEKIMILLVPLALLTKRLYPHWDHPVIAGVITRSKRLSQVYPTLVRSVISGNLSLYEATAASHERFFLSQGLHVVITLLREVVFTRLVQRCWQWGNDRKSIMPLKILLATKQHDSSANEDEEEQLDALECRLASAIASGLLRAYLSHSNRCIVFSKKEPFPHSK
T5 sequence 2: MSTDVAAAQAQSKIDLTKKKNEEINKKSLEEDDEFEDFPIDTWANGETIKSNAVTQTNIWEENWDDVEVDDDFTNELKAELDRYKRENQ
Described as above. The settings on record: protein: recombinant;recombinant; tags: 6xHis;none; copies: 1;1; label: 5' FAM.

B1: the “stoichiometry N” value in series [1] was 1.

B2: T-rich dsDNA 20 (dsDNA)
DNA 1: TTTTATTTTATTTTTATTTT
DNA 2: AAAATAAAAATAAAATAAAA
Take B2: the Kd in the series with Thp3;Csn12;Sem1 (blunt) was determined as 1.1 µM.

B3: Sem1, full length, untagged (natural protein, S. cerevisiae, UniProt O94742 1-89, looked up)
chain: MSTDVAAAQAQSKIDLTKKKNEEINKKSLEEDDEFEDFPIDTWANGETIKSNAVTQTNIWEENWDDVEVDDDFTNELKAELDRYKRENQ
notes: Sem1, S. cerevisiae, full length, residues 1-89; second MCS of pETDuet-1; source: E. coli Rosetta (DE3), co-expressed; in cleared lysate (pull-down) and purified in the ternary complex (Ni-NTA, gel filtration, cation exchange)
In the case of B3, the “stoichiometry N” value in series [2] came to 1. TTTTATTTTATTTTTATTTT (ssDNA) [T-rich ssDNA 20]: the binding result (with Thp3;Csn12 R401E;Sem1; in series [3]) was “no binding” throughout. The Kd with Thp3;Csn12;Sem1 worked out at 3.7 µM. Consider AUAUAUAUAUAUAUAUAUAU (ssRNA) [AU-repeat ssRNA 20], for which the Kd in the series with Thp3;Csn12;Sem1 is 4.5 µM.

TTTTATTTTATTTTTATTTTATTTT (ssDNA) [T-rich ssDNA 25]: the values for the Kd (in series [4]; with Thp3;Csn12;Sem1) were 33.8 µM and 2.9 µM, respectively. Turning to AUAUAUAUAUAUAUAUAUAUAUAUA (ssRNA) [AU-repeat ssRNA 25], the Kd with Thp3;Csn12;Sem1 came to 1.6 µM.
